Results reported in publication PMC9186393.

Key:
[1] = biological target: U2AF65 WT (UniProt P26369 1-475); assay: EMSA
[2] = biological target: U2AF65 E425A (UniProt P26369 1-475, E425A); assay: EMSA
Sequence of U2AF65 E425A (P26369 whole entry E425A, one chain of several): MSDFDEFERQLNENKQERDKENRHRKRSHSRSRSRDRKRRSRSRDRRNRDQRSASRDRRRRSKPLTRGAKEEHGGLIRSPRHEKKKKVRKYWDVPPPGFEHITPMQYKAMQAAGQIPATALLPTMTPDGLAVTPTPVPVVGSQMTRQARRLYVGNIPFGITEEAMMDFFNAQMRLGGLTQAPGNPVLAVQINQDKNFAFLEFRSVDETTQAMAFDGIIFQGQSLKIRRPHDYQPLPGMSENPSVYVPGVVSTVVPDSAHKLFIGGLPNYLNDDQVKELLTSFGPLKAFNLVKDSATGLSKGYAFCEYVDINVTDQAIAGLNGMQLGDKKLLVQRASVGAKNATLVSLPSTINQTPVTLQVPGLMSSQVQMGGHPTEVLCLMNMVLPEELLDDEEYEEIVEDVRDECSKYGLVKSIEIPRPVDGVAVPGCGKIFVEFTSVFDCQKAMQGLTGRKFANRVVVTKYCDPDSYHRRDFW

Sequence of U2AF65 WT (P26369 whole entry, one chain of several): as the sequence (P26369 whole entry E425A, one chain of several) above, with A425E counted along it

Binder | binding result [1] | binding result [2]
CUUAACUCCUCUCUACAGU (ssRNA) [U12 Scn8a 3' splice site] | no binding | no binding
CCUGCUUUUUUCCCUUUUAAGGCCUCGAUCCA (ssRNA) [U2 LPL 3' splice site] | binds | binds
